Assays:
Experiment in all cases: cell-based or functional assay
[1] = biological target: T1, IL10Rα/IL2Rγ receptor (human, UniProt Q13651 22-578; P31785 23-369)
T1 sequence (looked up) 1: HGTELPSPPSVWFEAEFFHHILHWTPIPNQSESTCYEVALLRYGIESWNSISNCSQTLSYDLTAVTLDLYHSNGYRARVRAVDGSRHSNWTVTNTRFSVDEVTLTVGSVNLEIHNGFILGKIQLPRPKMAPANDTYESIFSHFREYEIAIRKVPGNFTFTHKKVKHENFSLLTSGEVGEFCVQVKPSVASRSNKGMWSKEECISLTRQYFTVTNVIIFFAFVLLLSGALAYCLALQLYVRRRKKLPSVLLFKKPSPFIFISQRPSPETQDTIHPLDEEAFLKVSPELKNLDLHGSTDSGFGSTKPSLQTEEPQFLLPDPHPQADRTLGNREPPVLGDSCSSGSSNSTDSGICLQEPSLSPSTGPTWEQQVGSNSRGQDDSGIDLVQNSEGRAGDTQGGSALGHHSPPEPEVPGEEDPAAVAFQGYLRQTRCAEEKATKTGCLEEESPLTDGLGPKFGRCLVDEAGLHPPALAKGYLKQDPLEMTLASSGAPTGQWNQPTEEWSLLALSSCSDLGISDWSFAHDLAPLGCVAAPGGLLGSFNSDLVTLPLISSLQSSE
T1 sequence (looked up) 2: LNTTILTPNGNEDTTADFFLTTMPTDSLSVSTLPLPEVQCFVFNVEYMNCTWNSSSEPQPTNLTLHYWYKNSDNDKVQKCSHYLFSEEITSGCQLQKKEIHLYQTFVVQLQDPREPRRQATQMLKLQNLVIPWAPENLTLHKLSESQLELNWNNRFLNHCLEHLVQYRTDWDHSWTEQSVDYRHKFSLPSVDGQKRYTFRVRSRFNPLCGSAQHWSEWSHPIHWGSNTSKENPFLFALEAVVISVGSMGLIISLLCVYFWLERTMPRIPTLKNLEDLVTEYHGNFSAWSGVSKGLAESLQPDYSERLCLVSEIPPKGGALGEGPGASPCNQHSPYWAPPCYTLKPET

[2] = biological target: T1, IL10Rα/IL2Rγ receptor; remark: listed apart in the source
[3] = biological target: T1, IL10Rα/IL2Rγ receptor; remark: listed apart in the source
[4] = biological target: T1, IL10Rα/IL2Rγ receptor; remark: listed apart in the source
[5] = biological target: T1, IL10Rα/IL2Rγ receptor; remark: listed apart in the source
[6] = biological target: T1, IL10Rα/IL2Rγ receptor; remark: listed apart in the source

B1: DR465(DR240-DR231) (bispecific antibody)
chain: QVQLQESGGGSVQAGGSLRLSCGASGYTYSSYCMGWFRQVPGKEREGVAVIDSDGSTSYADSVKGRFTISKDNGKNTLYLQMNSLKPEDTAMYYCAADLGHYRPPCGVLYLGMDYWGKGTQVTVSSGGGSQVQLQESGGGSVQAGGSLRLSCTASGFTFDDREMNWYRQAPGNECELVSTISSDGSTYYADSVKGRFTISQDNAKNTVYLQMDSVKPEDTAVYYCAADFMIAIQAPGAGCWGQGTQVTVSSASHHHHHH
pSTAT3 MFI, B cells, 100 nM (unstimulated 1045) [1]: 1660 MFI
pSTAT3 MFI, CD4+ T cells, 100 nM (unstimulated 1778) [1]: 6350 MFI
pSTAT3 MFI, CD8+ T cells, 100 nM (unstimulated 1288) [1]: 4510 MFI
pSTAT3 MFI, Monocytes, 100 nM (unstimulated 1787) [1]: 2350 MFI
pSTAT3 MFI, NK cells, 100 nM (unstimulated 1149) [1]: 1880 MFI
pSTAT3 MFI, B cells, 0.0001 nM (unstimulated 1193.5) [2]: 1110 MFI
pSTAT3 MFI, B cells, 0.001 nM (unstimulated 1193.5) [2]: 1100 MFI
pSTAT3 MFI, B cells, 0.01 nM (unstimulated 1193.5) [2]: 1090 MFI
pSTAT3 MFI, B cells, 0.1 nM (unstimulated 1193.5) [2]: 1110 MFI
pSTAT3 MFI, B cells, 1 nM (unstimulated 1193.5) [2]: 1290 MFI
pSTAT3 MFI, B cells, 10 nM (unstimulated 1193.5) [2]: 1840 MFI
pSTAT3 MFI, B cells, 100 nM (unstimulated 1193.5) [2]: 1850 MFI
pSTAT3 MFI, CD4 T cells, 0.0001 nM (unstimulated 1887) [3]: 1800 MFI
pSTAT3 MFI, CD4 T cells, 0.001 nM (unstimulated 1887) [3]: 1800 MFI
pSTAT3 MFI, CD4 T cells, 0.01 nM (unstimulated 1887) [3]: 1850 MFI
pSTAT3 MFI, CD4 T cells, 0.1 nM (unstimulated 1887) [3]: 2210 MFI
pSTAT3 MFI, CD4 T cells, 1 nM (unstimulated 1887) [3]: 4730 MFI
pSTAT3 MFI, CD4 T cells, 10 nM (unstimulated 1887) [3]: 7240 MFI
pSTAT3 MFI, CD4 T cells, 100 nM (unstimulated 1887) [3]: 7070 MFI
pSTAT3 MFI, NK cells, 0.0001 nM (unstimulated 1315) [4]: 1220 MFI
pSTAT3 MFI, NK cells, 0.001 nM (unstimulated 1315) [4]: 1230 MFI
pSTAT3 MFI, NK cells, 0.01 nM (unstimulated 1315) [4]: 1220 MFI
pSTAT3 MFI, NK cells, 0.1 nM (unstimulated 1315) [4]: 1250 MFI
pSTAT3 MFI, NK cells, 1 nM (unstimulated 1315) [4]: 1520 MFI
pSTAT3 MFI, NK cells, 10 nM (unstimulated 1315) [4]: 2040 MFI
pSTAT3 MFI, NK cells, 100 nM (unstimulated 1315) [4]: 2130 MFI
pSTAT3 MFI, CD8 T cells, 0.0001 nM (unstimulated 1446) [5]: 1390 MFI
pSTAT3 MFI, CD8 T cells, 0.001 nM (unstimulated 1446) [5]: 1370 MFI
pSTAT3 MFI, CD8 T cells, 0.01 nM (unstimulated 1446) [5]: 1380 MFI
pSTAT3 MFI, CD8 T cells, 0.1 nM (unstimulated 1446) [5]: 1590 MFI
pSTAT3 MFI, CD8 T cells, 1 nM (unstimulated 1446) [5]: 3260 MFI
pSTAT3 MFI, CD8 T cells, 10 nM (unstimulated 1446) [5]: 4850 MFI
pSTAT3 MFI, CD8 T cells, 100 nM (unstimulated 1446) [5]: 5020 MFI
pSTAT3 MFI, Monocytes, 0.0001 nM (unstimulated 2116) [6]: 1990 MFI
pSTAT3 MFI, Monocytes, 0.001 nM (unstimulated 2116) [6]: 1970 MFI
pSTAT3 MFI, Monocytes, 0.01 nM (unstimulated 2116) [6]: 1950 MFI
pSTAT3 MFI, Monocytes, 0.1 nM (unstimulated 2116) [6]: 1960 MFI
pSTAT3 MFI, Monocytes, 1 nM (unstimulated 2116) [6]: 2110 MFI
pSTAT3 MFI, Monocytes, 10 nM (unstimulated 2116) [6]: 2470 MFI
pSTAT3 MFI, Monocytes, 100 nM (unstimulated 2116) [6]: 2470 MFI
